Experimental findings from patent US20250277003A1 are described below.

Assay [1] deals with SARS-CoV-2 spike receptor-binding domain, wildtype (CoV-2 RBD WT) (SARS-CoV-2) (UniProt P0DTC2). As to the kind of experiment: bead flow cytometry.
The target of assay [2] is BatCoV Anlong-103 spike RBD (BatCoV Anlong-103). As to the kind of experiment: bead flow cytometry.

As to mAb S309 (antibody), the figures for the gMFI in assay [1] and in assay [2] were 8370 and 69.3, respectively.
As for mAb CR3022 (antibody), the gMFI in assay [1] was 25800; in assay [2], 12900.
